The values that follow are results of earlier work, collected in PMC4468388.

In general, Kd refers to the constant that tells how readily two partners part at equilibrium.

This series concerns the target insulin receptor (Homo sapiens) (UniProt P06213).
Sequence of UniProt P06213 (P06213 763-1382): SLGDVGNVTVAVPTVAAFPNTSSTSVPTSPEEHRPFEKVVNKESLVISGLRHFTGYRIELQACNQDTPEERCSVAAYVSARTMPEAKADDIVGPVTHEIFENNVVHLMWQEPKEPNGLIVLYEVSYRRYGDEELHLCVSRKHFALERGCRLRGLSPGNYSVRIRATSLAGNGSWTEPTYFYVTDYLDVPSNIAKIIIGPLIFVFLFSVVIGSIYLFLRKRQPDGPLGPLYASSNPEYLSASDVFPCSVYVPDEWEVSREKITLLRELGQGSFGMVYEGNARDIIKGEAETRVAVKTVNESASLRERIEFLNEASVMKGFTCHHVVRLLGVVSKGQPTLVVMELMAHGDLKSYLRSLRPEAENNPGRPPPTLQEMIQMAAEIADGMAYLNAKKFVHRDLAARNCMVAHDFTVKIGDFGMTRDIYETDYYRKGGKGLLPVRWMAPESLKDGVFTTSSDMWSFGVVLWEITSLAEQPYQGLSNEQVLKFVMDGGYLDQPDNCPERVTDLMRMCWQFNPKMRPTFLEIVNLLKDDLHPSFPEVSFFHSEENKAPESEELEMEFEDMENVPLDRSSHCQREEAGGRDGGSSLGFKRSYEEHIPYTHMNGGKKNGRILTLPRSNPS

Sequence of insulin (P01308 90-110): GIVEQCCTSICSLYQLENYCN

With insulin (from UniProt P01308), the Kd is less than 1 nM.
